The nature of data set [1]: Test 7: in vivo ocular toxicity test, TB staining of eye sections. Particulars: eyes removed day 29, FIG. 17. Further details: species or system Balb/c mice. The protocol:
The ocular toxicity test was carried out using Balb/c mice. The mice intravenously received “20A77_mIgG1”, “24A1_mIgG1” or an isotype control antibody mIgG1 at a dose of 10 mg/kg at a frequency of twice a week. As a positive control of ocular toxicity, mice orally received a MerTK small molecule inhibitor UNC569 at a dose of 150 mg/kg for 10 days. At day 29 after the first administration, eyes were removed, fixed with a Karnovsky's fixative and then subjected to embedding in a resin, preparation of sections and toluidine blue staining (hereinafter also referred to as “TB staining”) carried out by Applied Medical Research Laboratory.

For data set [2] the following is noted: administration to mice; Non-Patent Document 3; cited from earlier work.
Data set [3] deals with mouse colon cancer cell line CT26. Kind of data set: Test 4: efficacious dosage in CT26 syngeneic tumor model. In kind it is in vivo, Balb/c mice. Conditions: vs solvent control. As for the experimental part:
(§1) CT26 cells (5×10^6 cells per mouse) were subcutaneously transplanted to Balb/c mice at the right flank. After 5 days of the tumor transplantation, the mice were divided into groups and an isotype control antibody mIgG2a and “20A77_mIgG2a” were respectively intraperitoneally administered at a dose of 10 mg/kg at a frequency of twice a week. After the administration, the tumor size was measured at a frequency of twice a week until day 19 after the tumor transplantation. The tumor size was calculated from the equation below with the minor axis and the major axis of the tumor measured using calipers:
On the basis of the procedures indicated below, anti-tumor effects of “20A77_mIgG1” and “24A1_mIgG1” according to the dosage thereof were evaluated. As “Test 3” above, a syngeneic tumor model using the mouse colon cancer cell line CT26 (ATCC) was used for the evaluation.
In the “20A77_mIgG1” administration group, a solvent (1% histidine buffer, pH 6.0) and “20A77_mIgG1” were intraperitoneally administered at a dose of 3, 10 or 30 mg/kg at a frequency of twice a week. […] The tumor size was measured at a frequency of twice a week until day 19 and 22 after the tumor transplantation for the “20A77_mIgG1” and “24A1_mIgG1” administration groups, respectively.

Data set [4] shares this test system. Put plainly: Test 5: combined administration with anti-PD-1 antibody in CT26 syngeneic tumor model. It is filed as in vivo, Balb/c mice. Particulars: 5 mg/kg plus anti-mouse PD-1 antibody 29F.1A12 0.3 mg/kg, twice a week until day 19; FIGS. 11 and 12. As for the experimental part: as §1
On the basis of the procedures indicated below, anti-tumor effects of combined use of each of “20A77_mIgG1” and “24A1_mIgG1” and an anti-PD-1 antibody were evaluated. As “Test 3” above, a syngeneic tumor model using the mouse colon cancer cell line CT26 (ATCC) was used for the evaluation. Anti-PD-1 antibodies are known to have anti-tumor effects.
The administration groups received the antibodies indicated below at a frequency of twice a week. […]

In the case of `CCCCNc1ncc2c(-c3ccc(F)cc3)nn(CC3CCC(N)CC3)c2n1` (stereo not drawn) [UNC569, reference compound], the “TB-positive granules in the retinal pigment epithelium” value in data set [1] (positive control, 150 mg/kg oral for 10 days) is “increased TB-positive granules”. The “ocular toxicity: toluidine blue-positive granules and vacuoles in photoreceptor” value in data set [2] is “increased toluidine blue-positive granules and vacuoles in photoreceptor, resulting in ocular toxicity”.

B1: 24A1_mIgG1: recombinant mouse IgG1 antibody with 24A1 variable regions (antibody, V domains shown)
VH: EVQLVESGGGLVQPKGSLKLSCAASGFTFNVYDMHWVRQAPGEGLEWVARIRSKSSNYATNYADSVKDRFTISRDDSQSMLYLQMNNLQTEDTAIYYCVRDGSHYYYALDYWGQGTSVTVSS
VL: DIQMTQTTSSLSASLGDRVTISCRASQDINNYLNWYQQKLDGTVKLLIYYSSRLHSGVPSRFSGSGSGTDYSLTISNLEQEDIATYFCQQGKMFPWTFGGGTKLEIK
As to B1, the “tumor growth suppressing effect” value in data set [3] (5 mg/kg intraperitoneal twice a week, until day 22, FIGS. 9 and 10) is listed as “significant tumor growth suppression”; in data set [3] (30 mg/kg intraperitoneal twice a week, day 19 (20A77_mIgG1) or day 22 (24A1_mIgG1)), “significant tumor growth suppression”. Moreover, the “anti-tumor effects of combined use with anti-PD-1 antibody” value in data set [4] is “had enhanced anti-tumor effects”. For the same molecule, the “TB-positive granules in the retinal pigment epithelium” value in data set [1] (10 mg/kg intravenous twice a week) is “no increase in TB-positive granules was observed”.

These data come from patent publication US20250326862A1, “Antibody or Fragment Thereof Binding Specifically to Mertk, and Anti-Tumor Agent” (Chiome Bioscience Inc., priority 2021, published 2025).
